Measurements: the supplement of paper PMC9112550, “Optimization of the antimicrobial peptide Bac7 by deep mutational scanning” (BMC Biology, 2022)

Test system: Escherichia coli TOP10
Assay: shrunken log2 fold change of peptide-encoding DNA abundance (4.5 h post-induction vs induction); higher = less antimicrobial activity (less host growth inhibition)
Conditions: time post-induction: 4.5 h; library: site-saturation at positions 5, 18, 19, 20
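Also: peptides expressed intracellularly from a pBAD plasmid library in pooled LB shake-flask culture, induced with 0.3% L-arabinose, DNA abundance read by NGS, three biological replicates, DESeq2 with apeglm shrinkage.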

| Sequence | shrunken log2 fold change |
| --- | --- |
| RRIRFRPPRLPRPRPRPGQVPRP | -0.131 |
| RRIRGRPPRLPRPRPRPKGRPRP | 0.792 |
| RRIRHRPPRLPRPRPRPMPAPRP | 0.337 |
| RRIRDRPPRLPRPRPRPSGVPRP | 0.119 |
| RRIRHRPPRLPRPRPRPNISPRP | -0.319 |
| RRIRNRPPRLPRPRPRPREQPRP | -0.00697 |
| RRIRERPPRLPRPRPRPTNMPRP | -0.568 |
| RRIRSRPPRLPRPRPRPTLAPRP | 0.542 |
| RRIRPRPPRLPRPRPRPLIMPRP | -0.131 |
| RRIRQRPPRLPRPRPRPLFRPRP | -0.227 |
| RRIRCRPPRLPRPRPRPPAWPRP | 0.692 |
| RRIRQRPPRLPRPRPRPEASPRP | -0.0802 |
| RRIRMRPPRLPRPRPRPGPQPRP | 1.21 |
| RRIRERPPRLPRPRPRPIQNPRP | 0.0753 |
| RRIRDRPPRLPRPRPRPAFSPRP | -0.0405 |
| RRIRRRPPRLPRPRPRPYVYPRP | -0.209 |
| RRIRQRPPRLPRPRPRPGTCPRP | -0.266 |
| RRIRIRPPRLPRPRPRPQTSPRP | -0.404 |
| RRIRQRPPRLPRPRPRPPPFPRP | 0.259 |
| RRIRYRPPRLPRPRPRPNGRPRP | -0.311 |
| RRIRKRPPRLPRPRPRPLLCPRP | 0.347 |
| RRIRRRPPRLPRPRPRPQAWPRP | 0.0536 |
| RRIRKRPPRLPRPRPRPVSSPRP | 0.00728 |
| RRIRHRPPRLPRPRPRPEILPRP | -0.00654 |
| RRIRNRPPRLPRPRPRPCMRPRP | 0.0891 |

| Sequence | shrunken log2 fold change |
| --- | --- |
| RRIRERPPRLPRPRPRPHATPRP | 0.238 |
| RRIRFRPPRLPRPRPRPAIPPRP | -0.0151 |
| RRIRARPPRLPRPRPRPRQTPRP | 0.535 |
| RRIRCRPPRLPRPRPRPYRNPRP | 0.0132 |
| RRIRTRPPRLPRPRPRPHWLPRP | 0.122 |
| RRIRRRPPRLPRPRPRPKYGPRP | -0.000734 |
| RRIRARPPRLPRPRPRPFSKPRP | -0.301 |
| RRIRIRPPRLPRPRPRPEHVPRP | -0.0143 |
| RRIRQRPPRLPRPRPRPMGPPRP | -0.0254 |
| RRIRTRPPRLPRPRPRPQHKPRP | -0.0821 |
| RRIRIRPPRLPRPRPRPESTPRP | -0.325 |
| RRIRMRPPRLPRPRPRPMGPPRP | 0.168 |
| RRIRTRPPRLPRPRPRPLIQPRP | -0.197 |
| RRIRPRPPRLPRPRPRPKWHPRP | 0.173 |
| RRIRHRPPRLPRPRPRPPKKPRP | -0.0115 |
| RRIRSRPPRLPRPRPRPKFSPRP | 0.0488 |
| RRIRERPPRLPRPRPRPTMGPRP | -0.253 |
| RRIRVRPPRLPRPRPRPVSEPRP | 0.155 |
| RRIRQRPPRLPRPRPRPLHMPRP | -0.384 |
| RRIRPRPPRLPRPRPRPIYFPRP | -0.205 |
| RRIRMRPPRLPRPRPRPNRWPRP | 0.394 |
| RRIRVRPPRLPRPRPRPTMAPRP | 0.235 |
| RRIRKRPPRLPRPRPRPWQRPRP | -0.0202 |
| RRIRQRPPRLPRPRPRPQIMPRP | -0.528 |
| RRIRGRPPRLPRPRPRPEFFPRP | 0.891 |
